From the domain aggregation screens of Martell et al. (2025)

Assay: soluble fraction after stress (log2 fold change); higher = more stays soluble; pooled small domains, quantitative proteomics
Conditions: stress: pH 4
How it was run: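 Aggregation propensity is estimated from the fold change in each domain's soluble amount after acid stress. Pooled small-domain libraries were stressed at pH 4, and higher log2 values mean more stayed soluble.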

Sequence | soluble fraction (log2)
HMHDRRSGKVKWYSDRKGYGFIDLDGGEVFIHRSALIAFGALRLQAEDIITITVRETDRGLVVDQLFGIER | -1.63
HMSRVHHGFNISIARNRKGLKQAALADMLGISQQRLSQLENQRVVKDEILEKVSEATGVSVEDLKTIE | 0.171
HMNPMLEPAGEIRLSDGVLLRWQSERLPGDDTVRGPGSLYELGLYRVKVRVSAPQQGVRESSVELAGWRQV | -0.212
HMNEYSLVPDIYGMTYDDALSSLRNVGLDGRLALASTNEDLANADTRVVWQSKEAGSIIDKGSNVMFVID | -1.27
HMDFEEGAVKWFNTKKGYGFITRDQGDDIFVHFRNIKAQSRRSLTDGERVTFVVTEGDKGLQADHVSPV | -0.886
HMKDTFHNLSEEKRERIIRAALGEFAASGYEKATLDGVVQAAGISKGGLYEYISSKEDLFRYLLEYSYD | -1.43
HMNTELSPKVWDVVQEFILYRKEIKAPMTEHAVKLLIGQLQKLSSDPDEQIEILRQSIVNGWKGIFSLK | -0.992
HMSQSYHLADRGQSLGTLDYQAVLVGLATGRLSPDTLSWQEGEAGWVALRQRPEFASGVSAVASL | -0.753
HMDNRLFKMLYYLLDKERATAPELAAEFEVSTRTIYRDVEALSSAGIPIYAEPGRNGGIYLLQD | -1.1
HMSEIVEEQNTKLKQAVSKLSKRQQEVLYLKFEEGLDYEQISKIMDLKYQSVRNLVSTAIIKIKEH | 0.0707
HMATPIAGTKYTLNNTPVYGTEKGPSIGKRSGIYYTWDATVRNGRIRMTNSPARVGVPWQVSFWVEVNKL | -0.195
HMADEEEIMVPQVVGKTYDEAKSELENAGFKVEKNEKTSDKASGTVISQSINGGAKKGTSVTLTVSKGN | 0.132
HMRYLMPDLVNRRYEPVRSLLEARGIRFGNVIFEPYEGLPPGIVLRQDPPAGHPLPRRRTVSLVVSGPGGR | 0.109
HMASIATLTVKALGGASDVVIRDKDGRIIWADRLPAGQSHRVFGHAPFNVAASHASRVQLSLLGKDVGRV | -0.147
HMETYHIQMKGDPSKGIVGFSQLDMVIDKIKRLETEKGIAPYELEVLDGDTMEKYSGEEFLTMHE | -1.21
HMKQQAYEQGKAAYQSGDWLRAVTQLGQVKEAGEKNGEVDHLLGNAYMKLGQFESAAYAYNSALEDVA | 0.123
HMVTLYDGFLSELRKRIPRGAELTNTLVDMLYIEREAVYRRLRGEVPFTFIEVMTVSKELGISLDNLAQA | -0.802
HMGQVSDETGLARVVDALLAAHPDEVAKYRAGKTSLLGWFMGQVMKETRGQANPDLARALVLERLE | -0.269
HMKKTTEFAVTPEFQQRLEASPELKAAFQALTPGRQRAHLLFFAAPKQAQTRQARIEKSLPQIMAGKGLN | -0.0768
HMAFKDDDVQKAYDRYMDRYGELSVLYSDNGLKVDDDLFYKNNIPPNGKFTKEFFDELYELVNMEFINNY | -0.538
HMDPSHGESRENLDIMRIIDETHLEYPSWGYRKMTDHLRANHGYTINRKRVRRLMRLMDIIALFPG | -0.908
HMKNDKLLIFMELKGISRTQLSKSTGIPASTLGRIINGDVQKIKAVYMEAIANALDTSIHTIFDV | -0.352
HMSVDEVEALYLKIAEDRLEGKLPDKVSESDLMRRYGLTKAQLGAILQRIVHEGWIERTPGHGWRFLPIL | -0.368
HMPATPDATVQAVQQRLNELGYDVGSADGLMGRGTRSAIIAFQQDRGLAATGVADQALLLQLQP | -0.0545
HMGDLLTVDRVAATSGLGVDTIRYYQRLGLLDPPVRHGRRALYSTAHLDRLVEIRQLADEGFSLAQIATL | -0.816

Sequence | soluble fraction (log2)
HMTPFVINVDRHGAVIINEKTVDIDEAVVLARQERSQGKSILLAGDKKAPYEAIIRVLDALKQAG | -0.464
HMLRMTRNRQKLVEVLMESGRPLSADEIREAAGFASTDLVTVYRNLEAFQSAGLLQRIPLENGSQLFELT | -0.269
HMEQSGDELKTWVDQAIAAYPEKVKEYQQGKKGLLALFIGEVMKRSKGTADPKKVNQLVTEALS | -0.211
HMDLEELSNKMNNVFESLSSDLRDIIIMSDIEGLSYEEISHKINIPIGTVRSRLHRARDLMVRVIKEN | -0.713
HMLSTGIIIGDNVALRKTASSNGGIITRLDEGTVVKILASNVNAEWYQVEAGTKTGYVNRLYVNID | -0.345
HMGNPSGLPLPRFASTRSEPINVRVGPGQKYDIAWTYLKSGIPVEIIQEFDTWRKIRDFDGAEGWIHQNLL | -0.398
HMEDLAERLDNLSTMYAKMDPVRAAQVLLESKNKSENIEVLKRLKPKSLGLILENMPPREAYDYVSELQ | 0.0298
HMGAARVTPLYNLRLREGPSTATARLDVVPRGTTLEVRAWDETGDWAQVEYRGQIGWIAAWLAEVEGEAP | -0.739
HMLAMHVVESVGGAEQFTKLQNFAKTQNADYQKMWNDTMNSGNVLAIKTMLSGIQSDMIAVQ | -0.466
HMVLVEEYDTKDSASTFKIGYYARYNTKYGTPSKVGSYADNQRSGIWTFYTDSLKTYFKYNYSTGLIL | -0.572
HMEKKTILIPPVITVRALAEISQIPVNRLLQELIKNGVFTSINEKIDFDTAVIIGADLNLDIQLL | -0.984
HMRLPAISYSFARKHGVVLRLDGDRPVASLREGADPAILIEVKRHLDGAMGVEKVSEAAFDQLLSTTYA | -0.436
HMKVVEKHIVPQIQNPIRLQEYASSIFKTITTRSGIKKAIKKQLILLNRKPANTGDWIKEGQLLELLAEE | -0.569
HMSEITQTLSMIGKEVTLEIPDEKDKTKTTEVKGIVTEASFKDGTGKVKVNGEYYSIAYITSIRDT | -0.545
HMTTTSGLIKTIQTGRRKLGMDDETYRALLADVSGGKTSSKDLNAYQLKEVLRRMREAGFRS | 0.371
HMDSPVEEWANRGLAYDPSLVTETMAKLYAKQGQIGLARKAFKRLALIYPEKSVYFAFQLKKLSNN | 0.0712
HMSPDLNEVEEKVFRALNGVESMHVNKLGIELNLPVSELFFTLLELEMKNVVKALPGGMYKL | -1.1
HMGTVQSVDRALLLLSEIGREPGGLVDLSTRVRLATSTTGRILATLEHAGAVVRGDDGIYHIGPLVHGMVS | 0.0724
HMTTETGTVKWFNEGKGFGFIAPDGGGKDLFAHFKEIQGSGFKTLTENQRVQFEVTQGQKGPQASNIRTL | -0.183
HMLISDENMLRDLVQAVLDENPKSVSDYKSGKTKAFGFLVGQTMKAVKGQADPMLVNKILTELLN | -0.0698
HMDNREKLRQEFLENLKELQEQNDIPQQEIDRVILDYDGVAEFLEDEGALKRYGGQLVDMTAYRAGAIPS | -2
HMEQIPEEYKKIYSLITDIPININDIAKKSLLELREVSSKLTMLELDGKVVKLPGNMYIRGDL | -0.0736
HMSADKAEAAEASLKSFNLRLQAAAMEAGKTFAPVTADQYAEYKAAWGTYIRKGIEGLSESEKKTINVG | -0.167
HMPELTASDEADLKALVGGDQGFEQMANWARSNLGEEEINRFDAVVDSNNKDAIHMAIQAMQARMNA | -0.394
HMQTMTDDQVMQYVISQQEKGATQQDIVSKLLQKGVTVDQMRRIRKKYEAQQSQPGALDLTGSS | -0.0786

Sequence | soluble fraction (log2)
HMKGERHNKILELIQQHAIDRQEDLLRYLKEAGFQVTQATVSRDIRELHLVKVAAGGGQYRYVSAAAAS | -0.255
HMNVPFGFDEVNGKLVKNEEEQAIISEIKSLKNKGLSLRKIAEALNGRGIATKNGKAWTAVQIQRIA | 0.22
HMSVSATQMDAFVRQLRARLSSADGLDDAARLVRQDLEPFLGRFSDETERDFAAAIEQVRGSIRPVEI | -1.73
HMTAPELGIRQDGNTLVIFWPSSVTGYVLKSADAVDTPPASWTSVTHTTVGDEHRAEITPTGNSRFFRLV | -0.492
HMPLAQRFGLTVAQARVLDLLAEGRSNRQIGELLGLTEGTVKIHVSAIMKAMGVSNRAEAALMANRKR | -0.29
HMKGEKVTKIELSNFIKFLINDLENKGFFNPPEKKDSMIDNIYSIYNKMTLTKKELNMLWGMHKKLK | -0.676
HMSVTRELMLVKVKVTPEQRAGVSAIVDIFRANIIDVGKESMIIELTGNKSKLEAFIDLLDGYEILELART | -0.865
HMQSVPELDQQFKIAIENNDFIKLAQLKEQGYHPSKEVMQSLSNTTPNNTIIAVQKIFGLKA | -0.185
HMGSVHDAATDRIREMILGGQFEPGERLRQDDLATSLGVSTMPVREALRQLQAEGLVVFYPRKGAVVAR | -0.173
HMEFSYMDQGLERYRAFLETHGHGNVPESYHELKLVNFVAHIRKLYRMNLLSEERRRALDEAGFVF | -1.24
HMQGATVYIKSDDIGKTTNEQGSFNFDKLKKNRYTLEISFIGYETKNLQAYTDRENIVQLNRKS | -0.527
HMRGSRIFSGDVSPLTLPANSPFFSGYTEFKPGDVYVERSATNIAMWEWKSQPGGYTWVKTADIA | 0.22
HMQPETIEDATNLYLEAARATLQLIEQNNVIARDVKRLLEHLDNDMARIETLLAEMLSRRDHWLRHIH | 0.185
HMQADEENPKYPVITDGVIQLEVLESIDKTEEWLVERLAKDGYNNVSEIFIAEYENGNLSIVT | -0.742
HMVEIPEFKITTFVNTDNEQIAEFENGFTDKKAEITFNNTKYVFKEKLPDQDGIRTYVYEELHE | -0.438
HMQITTVSPKNYAEAELIGQRFREGNPVVMDLSKLDSDLGQRLVDFASGLVFALNGTVERIAKKVFLLSP | -0.748
HMPVFYVTGNRVNFRAGPSTGDRVIGSLSQGAAVEVLGPTDDAWINIRDSDGRVGYMSAQFLSQ | -0.213
HMRGAIKMAEEQMAGHKKIGSISGTAPTQGELEKKFAMAAAQMGARYYVITGLSNNNYAFGNADIY | -0.194
HMDTRKKLEQIFKLFDKTGTGMVNIDEFKSVLKLFMEEIDEKFGNYFIAYFDENGDGKIEFEEFADVVL | -0.462
HMPPENVSVRREQIAEDKKTVYNVWVTKGNKTVLYSKVVYAWGGVYFFRDLNTSISENMYKQADAGLVN | -0.0222
HMDRVTYPVSFNGKVRFQLELDAGMNAKEVETAALGHEKTAAQIEGKTIRKVIVVPGRIINIVV | -0.404
HMYLLPVTSTELKGNYPNPFNPETTISFDLKDAERVNLSIYNLKGQLVRTLVNSDLPIGRHRLIWDGNDS | -0.609
HMSLTYTGKFILNHNNIDQSSFNINIYLVNKQTIIQITKPFYGNVLNIKFNEENDLIISPKQFS | -0.9
HMLSVKEQTYQIIKEKILNQEYPAGARININELAEELGISNSPIREALSLLEQQGLVISNRSSGATVT | -0.772
HMGTSFEDIDRAVKSVRKPETDEAEKLHAGKTFKDIAETELFQKLTESFAGISDRVNEVIDLYTARAAE | 0.143
